Experimental data as given in IntAct's records for PubMed 23297211.

B1: Small glutamine-rich tetratricopeptide repeat-containing protein 2 (Saccharomyces cerevisiae), Q12118 (parent)
chain: MSASKEEIAALIVNYFSSIVEKKEISEDGADSLNVAMDCISEAFGFEREAVSGILGKSEFKGQHLADILNSASRVPESNKKDDAENVEINIPEDDAETKAKAEDLKMQGNKAMANKDYELAINKYTEAIKVLPTNAIYYANRAAAHSSLKEYDQAVKDAESAISIDPSYFRGYSRLGFAKYAQGKPEEALEAYKKVLDIEGDNATEAMKRDYESAKKKVEQSLNLEKTVPEQSRDADVDASQGASAGGLPDLGSLLGGGLGGLMNNPQLMQAAQKMMSNPGAMQNIQKMMQDPSIRQMAEGFASGGGTPNLSDLMNNPALRNMAGNLFGGAGAQSTDETPDNENKQ
partner: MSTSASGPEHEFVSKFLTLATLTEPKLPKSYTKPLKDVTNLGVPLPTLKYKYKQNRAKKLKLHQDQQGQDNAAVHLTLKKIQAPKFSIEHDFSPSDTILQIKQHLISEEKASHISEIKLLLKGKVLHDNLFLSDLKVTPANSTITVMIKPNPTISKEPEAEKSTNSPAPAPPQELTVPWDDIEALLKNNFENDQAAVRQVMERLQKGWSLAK

Variants of: B1
Settings: with mdy2_yeast MDY2, Q12285

Variant	effect of a mutation on the interaction
MSASKEEIAALIVNYYSSIVEKKEISEDGADSLNVAMDCISEAFGFEREAVSGILGKSEFKGQHLADILNSASRVPESNKKDDAENVEINIPEDDAETKAKAEDLKMQGNKAMANKDYELAINKYTEAIKVLPTNAIYYANRAAAHSSLKEYDQAVKDAESAISIDPSYFRGYSRLGFAKYAQGKPEEALEAYKKVLDIEGDNATEAMKRDYESAKKKVEQSLNLEKTVPEQSRDADVDASQGASAGGLPDLGSLLGGGLGGLMNNPQLMQAAQKMMSNPGAMQNIQKMMQDPSIRQMAEGFASGGGTPNLSDLMNNPALRNMAGNLFGGAGAQSTDETPDNENKQ [F16Y]	with no effect
MSASKEEIAALIVNYFSSIVEKKEISEDGARSLNVAMDCISEAFGFEREAVSGILGKSEFKGQHLADILNSASRVPESNKKDDAENVEINIPEDDAETKAKAEDLKMQGNKAMANKDYELAINKYTEAIKVLPTNAIYYANRAAAHSSLKEYDQAVKDAESAISIDPSYFRGYSRLGFAKYAQGKPEEALEAYKKVLDIEGDNATEAMKRDYESAKKKVEQSLNLEKTVPEQSRDADVDASQGASAGGLPDLGSLLGGGLGGLMNNPQLMQAAQKMMSNPGAMQNIQKMMQDPSIRQMAEGFASGGGTPNLSDLMNNPALRNMAGNLFGGAGAQSTDETPDNENKQ [D31R]	decreasing interaction strength
MSASKEEIAALIVNYFSSIVEKKEISEDGADSLNAAMDCISEAFGFEREAVSGILGKSEFKGQHLADILNSASRVPESNKKDDAENVEINIPEDDAETKAKAEDLKMQGNKAMANKDYELAINKYTEAIKVLPTNAIYYANRAAAHSSLKEYDQAVKDAESAISIDPSYFRGYSRLGFAKYAQGKPEEALEAYKKVLDIEGDNATEAMKRDYESAKKKVEQSLNLEKTVPEQSRDADVDASQGASAGGLPDLGSLLGGGLGGLMNNPQLMQAAQKMMSNPGAMQNIQKMMQDPSIRQMAEGFASGGGTPNLSDLMNNPALRNMAGNLFGGAGAQSTDETPDNENKQ [V35A]	decreasing interaction strength
MSASKEEIAALIVNYFSSIVEKKEISEDGADSLNVAMRCISEAFGFEREAVSGILGKSEFKGQHLADILNSASRVPESNKKDDAENVEINIPEDDAETKAKAEDLKMQGNKAMANKDYELAINKYTEAIKVLPTNAIYYANRAAAHSSLKEYDQAVKDAESAISIDPSYFRGYSRLGFAKYAQGKPEEALEAYKKVLDIEGDNATEAMKRDYESAKKKVEQSLNLEKTVPEQSRDADVDASQGASAGGLPDLGSLLGGGLGGLMNNPQLMQAAQKMMSNPGAMQNIQKMMQDPSIRQMAEGFASGGGTPNLSDLMNNPALRNMAGNLFGGAGAQSTDETPDNENKQ [D38R]	disrupting interaction strength
MSASKEEIAALIVNYFSSIVEKKEISEDGADSLNVAMDCISRAFGFEREAVSGILGKSEFKGQHLADILNSASRVPESNKKDDAENVEINIPEDDAETKAKAEDLKMQGNKAMANKDYELAINKYTEAIKVLPTNAIYYANRAAAHSSLKEYDQAVKDAESAISIDPSYFRGYSRLGFAKYAQGKPEEALEAYKKVLDIEGDNATEAMKRDYESAKKKVEQSLNLEKTVPEQSRDADVDASQGASAGGLPDLGSLLGGGLGGLMNNPQLMQAAQKMMSNPGAMQNIQKMMQDPSIRQMAEGFASGGGTPNLSDLMNNPALRNMAGNLFGGAGAQSTDETPDNENKQ [E42R]	decreasing interaction strength
